Assay results published in patent US20100041597A1, “PEPTIDES TARGETED TO PROTEIN KINASE C ISOFORMS AND USES THEREOF” (priority 2005, published 2010).

These substances were tested against T1, PKC-ε (Homo sapiens, UniProt Q02156) (assay: ELISA-based competitive binding assay with purified PKC isoform). Settings: PRE 50 μM; purified PKC-ε.
T1 sequence (Q02156 1-737): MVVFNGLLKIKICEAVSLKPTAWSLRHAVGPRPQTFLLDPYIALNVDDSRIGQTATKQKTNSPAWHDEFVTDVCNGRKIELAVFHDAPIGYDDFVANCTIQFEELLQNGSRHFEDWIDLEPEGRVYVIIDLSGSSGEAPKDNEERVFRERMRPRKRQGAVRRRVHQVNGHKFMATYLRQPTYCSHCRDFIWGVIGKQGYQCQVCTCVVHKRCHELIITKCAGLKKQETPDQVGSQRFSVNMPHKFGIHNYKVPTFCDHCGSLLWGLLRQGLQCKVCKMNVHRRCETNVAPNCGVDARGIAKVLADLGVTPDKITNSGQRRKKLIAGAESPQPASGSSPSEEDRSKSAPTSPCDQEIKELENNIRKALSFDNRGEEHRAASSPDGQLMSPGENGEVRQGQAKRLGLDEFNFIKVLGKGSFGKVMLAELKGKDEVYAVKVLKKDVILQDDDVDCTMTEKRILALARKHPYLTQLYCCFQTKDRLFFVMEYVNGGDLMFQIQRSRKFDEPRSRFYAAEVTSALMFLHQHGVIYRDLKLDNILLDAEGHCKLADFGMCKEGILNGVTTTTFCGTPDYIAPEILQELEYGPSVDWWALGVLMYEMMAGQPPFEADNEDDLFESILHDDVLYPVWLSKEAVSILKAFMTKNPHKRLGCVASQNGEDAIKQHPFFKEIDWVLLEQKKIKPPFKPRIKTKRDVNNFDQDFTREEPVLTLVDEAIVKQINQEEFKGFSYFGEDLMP
Parameters: key to Affinity for PKC isoform ε: —: no detectable affinity; Low to very low affinity at 10X or 20X or both PRE concentrations in at least one cell line in the cell extract assay; Low affinity in purified isoform assay.; Moderate affinity at 10X or 20X or both PRE concentrations in at least one cell line in the cell extract assay.; High affinity at 10X or 20X or both PRE concentrations in at least one cell line in the cell extract assay; High affinity in purified isoform assay
Description: Peptides PRE 1, 2, 3, 4, 5, 6, 7, 8, 9, 10, 11, 12 and 13 (see Table 3) were tested for their ability to interfere with binding of PKC isoform-specific antibodies to their target PKC isoforms using a competitive binding assay and purified PKC isoforms.
Procedure: Competitive binding was assessed using a 96 well plate ELISA-based assay as described below.
Greiner 96 well ELISA plates were coated with the appropriate PKC isoform diluted in PBSN (PBS with Calcium/Magnesium+0.05% Sodium azide w/w). 50 μL/well at 250 ng/mL was used. Control wells contained PBSN only. Plates were incubated overnight at 4° C.
The plates were washed 3 times with 200 μL of dH2O per well, then 100 μL of blocking solution was added per well and the plate incubated for 1 h at 37° C. The washing steps with dH2O were repeated and 50 μL of the appropriate PRE solution (PRE stock solution [20 mM in DMSO] diluted in PBSN) was added and the plate incubated for 1 h at room temperature.
After incubation, 5 μL of 1.1:400 anti-PKC (isoform specific antibody) was added per well (to provide a final concentration of 1:4000). For PKC-epsilon, 1.1:800 dilution was used and for PKC-zeta a 1.1:100 dilution was used due to high and low binding affinity, respectively. The plates were then incubated 1 h at room temperature, followed by washing with dH2O as described above.
50 μL of 1:1000 dilution of Alkaline Phosphatase (AP) conjugated antibody (anti-rabbit for all except zeta, which was anti-goat) was then added and the plate incubated for 1 h at room temperature. Washing with dH2O was then repeated. Finally, 100 μL of pNPP solution in pNPP buffer (2 mM MgCl2, 100 mM Sodium bicarbonate in water, pH 9.8) was added to all wells and incubated for 8 minutes for α, βI, βII ε, and ζ, or for 15-20 mins for […] (until sufficient coloration is observed). The reaction was stopped by addition of Stop solution (2N NaOH) and the absorbance at 405 nm was read on a Galaxy Plate reader.
Controls were PKC without PRE; blank controls, and controls containing the final concentrations of DMSO used for solubilizing the PREs. The non-specific binding capacity related to DMSO was also measured.
The antibodies used were as follows: anti-PKC α (Cat. No. SC-208); anti-PKC βI (Cat. No. SC-209); anti-PKC βII (Cat. No. SC-210); anti-PKC δ (Cat. No. SC-213); anti-PKC ε (Cat. No. SC-214); anti-PKC ζ (Cat. No. SC-216-G) (all from Santa Cruz Biotechnology, Inc.). The AP-conjugated antibodies were obtained from Jackson Immuno Research Laboratories (West Grove, Pa.).
Calculations: The OD values measured at 405 nm represent the free PKC coated per well.
OD405 PKC alone−Blank OD405 of each sample=OD405 coated isoform
(OD405 of sample X/OD405 coated isoform)×100=% n that represents the percentage of X binding compared to control.
100-% n measures the relative binding capacity of X towards the tested isoform.
The apparent binding capacity of the DMSO samples was then subtracted from X binding capacity.
All measurements were made in triplicate and the values in the table represent the averaged calculated binding capacity values after subtraction of the DMSO apparent binding capacity (averaged from 12 values, respectively 10.80, 11.20 and 16.40 corresponding to the concentrations of DMSO used to dilute the […] at 200, 100 and 50 μM respectively). The results allow for quantitative comparison of the binding capacity of each PRE towards an individual isoform within each table, but not among isoforms due to differences in sensitivity of the specific antibodies toward the secondary antibody. This applies particularly to PKC-delta. As noted above, the colour development duration was increased 2-3 times and, as a result, the OD405 measurements may be overestimated for this isoform.
In the case of Ac-isigilgnadk-NH2 [PRE 9], the “calculated binding capacity (100-% n) after subtraction of the DMSO apparent binding capacity” value (“calculated binding capacity (100-% n)” below) is reported as 16.35.
For Ac-ISIGILNQADK-NH2 [PRE 10], the “calculated binding capacity (100-% n)” value was 0.91.
For Ac-KDANQLIGISI-NH2 [PRE 6], the “calculated binding capacity (100-% n)” value was 2.61.

Same assay, conditions: PRE 50 μM; purified PKC-ε; read-out: calculated binding capacity (100-% n) after subtraction of the DMSO apparent binding capacity
“Ac-KDAQNLIGISI-NH2 [PRE 4, Ac-KDAQNLIGISI-NH2]” was tested, and the inhibition at 50 µM was 0%.
For Ac-AKGIQEVKGGDAQNLIGISI-NH2 [PRE 3], the inhibition at 50 µM was 34%.
Ac-AKGIQEVKGGKDAQNLIGISI-NH2 [PRE 5] was tested, and the inhibition at 50 µM was 0%.

Same assay, conditions: PRE 100 μM; purified PKC-ε
Ac-isigilgnadk-NH2 [PRE 9] was tested, and the “calculated binding capacity (100-% n)” value was 8.53.
With Ac-KDANQLIGISI-NH2 [PRE 6] the “calculated binding capacity (100-% n)” value was 0.46.
With RRKKGGKDFVVKR [PRE 1] the “calculated binding capacity (100-% n)” value was 5.47.

Same assay, conditions: PRE 100 μM; purified PKC-ε; read-out: calculated binding capacity (100-% n) after subtraction of the DMSO apparent binding capacity
“Ac-KDAQNLIGISI-NH2 [PRE 4, Ac-KDAQNLIGISI-NH2]” showed an inhibition at 100 µM of 0%.
Ac-AKGIQEVKGGDAQNLIGISI-NH2 [PRE 3] gave an inhibition at 100 µM of 31.5%.
Substance Ac-AKGIQEVKGGKDAQNLIGISI-NH2 [PRE 5] has an inhibition at 100 µM of 0%.

Same assay, conditions: PRE 200 μM; purified PKC-ε
With Ac-ISIGILNQADK-NH2 [PRE 10] the “calculated binding capacity (100-% n)” value was 1.75.
With RRKKGGKDFVVKR [PRE 1] the “calculated binding capacity (100-% n)” value was 0.83.

Same assay, conditions: PRE 200 μM; purified PKC-ε; read-out: calculated binding capacity (100-% n) after subtraction of the DMSO apparent binding capacity
“Ac-KDAQNLIGISI-NH2 [PRE 4, Ac-KDAQNLIGISI-NH2]” showed an inhibition at 200 µM of 2.58%.
In the case of Ac-AKGIQEVKGGDAQNLIGISI-NH2 [PRE 3], the inhibition at 200 µM is reported as 31%.
In the case of Ac-AKGIQEVKGGKDAQNLIGISI-NH2 [PRE 5], the inhibition at 200 µM is reported as 1.8%.

Same assay, conditions: Purified isoform; Table 20
For “Ac-KDAQNLIGISI-NH2 [PRE 4, Ac-KDAQNLIGISI-NH2]”, the “Affinity for PKC isoform ε” value was “—”.
Ac-isigilgnadk-NH2 [PRE 9] was tested, and the “Affinity for PKC isoform ε” value was “L”.
In the case of Ac-ISIGILQNADK-NH2 [PRE 7], the “Affinity for PKC isoform ε” value is reported as “L”.
For Ac-ISIGILNQADK-NH2 [PRE 10], the “Affinity for PKC isoform ε” value was “—”.
ILEDKGGDAQNLIGISI [PRE 8] was tested, and the “Affinity for PKC isoform ε” value was “—”.
With Ac-RDAQNLIGISI-NH2 [PRE 11] the “Affinity for PKC isoform ε” value was “L”.
In the case of Ac-KDANQLIGISI-NH2 [PRE 6], the “Affinity for PKC isoform ε” value is reported as “—”.
RRKKGGKDFVVKR [PRE 1] was tested, and the “Affinity for PKC isoform ε” value was “—”.
Ac-AKGIQEVKGGDAQNLIGISI-NH2 [PRE 3] was tested, and the “Affinity for PKC isoform ε” value was “H”.
Ac-AKGIQEVKGGKDAQNLIGISI-NH2 [PRE 5] was tested, and the “Affinity for PKC isoform ε” value was “—”.
For Ac-RDAQNLI-NH2 [PRE 13], the “Affinity for PKC isoform ε” value was “—”.
For Ac-KDAQNLI-NH2 [PRE 12], the “Affinity for PKC isoform ε” value was “—”.

Same assay, conditions: purified isoform, Tables 14-19
For Ac-AKGIQEVKGGDAQNLIGISI-NH2 [PRE 3], the “targeting of PKC-ε” value was “targeted most strongly”.
